Assay results published in patent publication US20240270806A1 (Chugai, published 2024).
Positions count from the first letter of the chain named. Numbers in names are those of the source. Values belong to the binder of their own block, whether it stands above or below them.

Tests used:
Human IL-12 = target: T1, Human IL-12 (human, UniProt P29460 23-328; P29459 23-219); test: SPR, BIACORE T200, 37 degrees C, pH 7.4; antibody captured by anti-human Fc antibody, human IL-12 injected at 5 and 20 nM; 1:1 binding model
T1 construct: also called human Interleukin-12
T1 sequence (looked up) 1: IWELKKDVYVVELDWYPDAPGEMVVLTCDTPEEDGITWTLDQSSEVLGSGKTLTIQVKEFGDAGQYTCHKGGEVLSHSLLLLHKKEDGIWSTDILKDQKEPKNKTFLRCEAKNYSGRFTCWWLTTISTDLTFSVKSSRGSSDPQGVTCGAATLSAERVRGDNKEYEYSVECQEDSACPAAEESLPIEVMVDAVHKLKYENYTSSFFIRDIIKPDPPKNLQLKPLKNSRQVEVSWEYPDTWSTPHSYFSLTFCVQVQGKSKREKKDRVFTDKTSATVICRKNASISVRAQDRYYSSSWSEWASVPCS
T1 sequence (looked up) 2: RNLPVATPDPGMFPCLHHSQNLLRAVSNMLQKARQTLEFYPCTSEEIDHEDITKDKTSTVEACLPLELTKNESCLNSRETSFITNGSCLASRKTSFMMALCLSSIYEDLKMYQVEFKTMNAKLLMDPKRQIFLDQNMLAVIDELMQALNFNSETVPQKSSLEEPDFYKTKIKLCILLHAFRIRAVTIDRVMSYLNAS
Protocol: The affinity of anti-IL12 antibodies binding to human IL-12 at pH 7.4 was determined at 37 degrees C. using BIACORE® T200 instrument (GE Healthcare). […] (GE Healthcare) was immobilized onto all flow cells of a CM4 sensor chip using amine coupling kit (GE Healthcare). All antibodies and analytes were prepared in ACES pH 7.4 containing 20 mM ACES, 150 mM NaCl, 0.05% Tween 20, 0.005% NaN₃. Each antibody was captured onto the sensor surface by anti-human Fc antibody. Antibody capture levels were aimed at 50 resonance unit (RU). Human IL-12 was injected at 5 and 20 nM, followed by dissociation. Sensor surface was regenerated each cycle with 3M MgCl₂.

[1] = target: T2, Human IL-12 receptor (human IL-12Rb1 and IL-12Rb2) (human, UniProt P42701 24-662; Q99665 24-862); test: cell-based or functional assay
T2 sequence (Q99665 24-862, chain 2 of 2, other chains not shown): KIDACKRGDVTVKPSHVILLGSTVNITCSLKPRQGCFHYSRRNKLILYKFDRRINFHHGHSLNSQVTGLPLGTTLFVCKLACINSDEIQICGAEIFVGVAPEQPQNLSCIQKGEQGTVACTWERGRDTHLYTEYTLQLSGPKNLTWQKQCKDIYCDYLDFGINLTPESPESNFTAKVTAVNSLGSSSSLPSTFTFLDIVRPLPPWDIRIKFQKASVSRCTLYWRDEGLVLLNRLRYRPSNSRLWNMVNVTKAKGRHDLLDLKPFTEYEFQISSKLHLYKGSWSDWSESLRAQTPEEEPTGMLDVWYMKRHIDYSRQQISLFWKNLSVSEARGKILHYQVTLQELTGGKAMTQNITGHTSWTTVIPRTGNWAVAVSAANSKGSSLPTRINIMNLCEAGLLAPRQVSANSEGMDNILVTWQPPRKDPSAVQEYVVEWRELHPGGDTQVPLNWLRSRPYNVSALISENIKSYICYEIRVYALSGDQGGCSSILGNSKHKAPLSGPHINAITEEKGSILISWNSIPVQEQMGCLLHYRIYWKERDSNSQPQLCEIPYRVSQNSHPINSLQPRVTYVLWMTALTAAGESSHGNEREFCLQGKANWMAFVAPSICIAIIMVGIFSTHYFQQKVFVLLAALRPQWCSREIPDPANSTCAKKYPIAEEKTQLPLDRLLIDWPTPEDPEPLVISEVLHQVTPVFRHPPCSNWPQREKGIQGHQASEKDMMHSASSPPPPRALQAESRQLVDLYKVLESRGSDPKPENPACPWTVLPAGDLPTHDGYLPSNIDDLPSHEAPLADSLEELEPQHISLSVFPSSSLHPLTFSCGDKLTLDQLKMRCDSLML

[2] = target: T2, Human IL-12 receptor (human IL-12Rb1 …); test: cell-based or functional assay; remark: listed apart in the source
[3] = target: T2, Human IL-12 receptor (human IL-12Rb1 …); test: cell-based or functional assay; remark: listed apart in the source

B1: Anti-IL-12 antibody, Ab1, comprising VH release enhancing mutations (Ab101H89-12aa0054-C8/Ab102L69-SK1) (antibody, V domains shown)
VH: QVQLVQSGAEVKKPGSSVKVSCKASGGTFSDYYLHWSRQAPGQGLEWMGWIDPENGDTEYAPKFQGRVTITADESTSTAYMELSSLRSEDTAVYYCARNKELRYIDVWGQGTLVTVSS
VL: DIVMTQSPLSLPVTPGEPASISCRASQSISINLHWYQQKPGQAPRQLIAFASQSISGVPSRFSGSGSGTDFTLTISSLQPEDFATYYCQQSNSFPLTFGQGTKVEIKR
notes: Homodimer of a light and a heavy chain; Mutations V37S, F100aI / L46Q, Y49A; also called Ab101H89/Ab102L69
- Kd (Human IL-12): 6.52 nM

B3: Anti-IL-12 antibody Ab1, variable region variant Ab101H89/Ab102L994 (antibody, V domains shown)
VH: B1 VH
VL: B1 VL with N92Y
notes: Mutations V37S, F100aI / L46Q, Y49A, N92Y
- Kd (Human IL-12): 3.51 nM

B5: hIL12_His tag (ligand)
chain 1: T1 sequence (looked up) 1
chain 2: T1 sequence (looked up) 2
- EC50 (read off the curve), IL-12 luciferase reporter assay (+ MTSP1) [1]: ~0.2 nM
- EC50 (read off the curve), IL-12 luciferase reporter assay (without protease) [1]: ~0.2 nM
- EC50 (read off the curve), IL-12 luciferase reporter assay (without protease) [left graph] [2]: ~0.1 nM
- EC50 (read off the curve), IL-12 luciferase reporter assay (+ MTSP1) [all three graphs] [3]: ~0.2 nM
- EC50 (read off the curve), IL-12 luciferase reporter assay (without protease) [all three graphs] [3]: ~0.2 nM

The remaining lines, values ahead:

- Kd (Human IL-12): 1.27 nM
B2: Anti-IL-12 antibody Ab1, variable region variant Ab101H725/Ab102L1087 (antibody, V domains shown)
VH: B1 VH with G56Q, N99T
VL: B1 VL with A25S, Q27D
notes: Mutations V37S, G55Q, N95T, F100aI / A25S, Q27D, L46Q, Y49A

- Kd (Human IL-12): 1.45 nM
- kon (Human IL-12): 1.9e+06 M⁻¹ s⁻¹
B4: Anti-IL-12 antibody Ab1, variable region variant Ab101H/Ab102L (antibody, V domains shown)
VH: B1 VH with S37V, I105F
VL: B1 VL with Q46L, A49Y
